From article PMC4031500

Target: chB6 (Bu-1), chicken B-lymphocyte allotypic marker (chicken (endogenous in DT40))
Assay: non-reducing against reducing SDS-PAGE with Western blot; chB6 immunoprecipitated from DT40 lysate, SDS-PAGE without reducing agent, blot with anti-chB6 peptide antibody; compared with membrane fractions run with 2-mercaptoethanol

stoichiometry N: 2
Substance: chB6 (Bu-1), chicken B-lymphocyte allotypic marker (natural protein)
